Measured values: PMC4631590

Columns and labels:
[1] = biological target: Corynebacterium ammoniagenes fatty-acid synthase type I (C. ammoniagenes); test: SEC; 0.1 M sodium phosphate pH 6.5, 0.1 M NaCl, 5 mM sodium malonate
[2] = biological target: Corynebacterium efficiens fatty-acid synthase type I (FAS B) (C. efficiens) (UniProt Q8FMV7); test: SEC; Superose 6 XK 16/70; 0.1 M bis-tris propane pH 6.8, 0.2 M NaCl, 10% glycerol

stoichiometry N [1] | stoichiometry N [2] | Substance
6 |  | Corynebacterium ammoniagenes fatty-acid synthase type I (enzyme)
 | 6 | Corynebacterium efficiens fatty-acid synthase type I (FAS B) (from UniProt Q8FMV7 1-3022) (enzyme)
